Laboratory results published in PMC10716038, “Talin and kindlin use integrin tail allostery and direct binding to activate integrins” (Nature Structural & Molecular Biology, 2023).
Changes are numbered by the printed parent chain. “And” between values parts separate entries of the source, which are not always exact repeats. Identical values can stand only once. No end group written: not given here.

Experiments:
[1] = biological target: T1, F3 domain of TLN1 (TLN1-F3) (UniProt P26039 305-405); assay: NMR titration; isotope-labelled β1-CT observed (1H-15N HSQC, 1H-13C methyl correlations); unlabelled TLN1-F3 or ΔKIND2 added alone at increasing stoichiometries; 20 mM Tris, 200 mM NaCl, 1 mM DTT, pH 7.5, 298 K; details: both partners purified
T1 construct: Used unlabelled, 15N-labelled or partially deuterated in NMR; also called T1-F3; source: E. coli (DE3) Rosetta 2, purified (IMAC, SEC); not shown: His10, N-terminal, cleaved; SUMO, N-terminal, cleaved

[2] = biological target: T2, TLN1-F3^K402E (UniProt P26039 305-405, K402E); assay: NMR titration; isotope-labelled β1-CT observed; TLN1-F3 and ΔKIND2 (wild type or K402E / Y13A) added together, ternary complex; 20 mM Tris, 200 mM NaCl, 1 mM DTT, pH 7.5, 298 K; details: both partners purified
T2 construct: source: E. coli (DE3) Rosetta 2, purified (IMAC, SEC); not shown: His10, N-terminal, cleaved; SUMO, N-terminal, cleaved

[3] = biological target: T3, talin-1 head domain (THD1) (UniProt P26039 1-405); assay: MST; ATTO 488-labelled β-CT peptide (50–200 nM) held constant, one unlabelled protein titrated; 20 mM Tris pH 7.5, 200 mM NaCl, 1 mM TCEP, 0.05% Tween-20; apparent affinities (near-saturation only); details: both partners purified
T3 construct: talin-1 (TLN1) head domain (F0-F3), residues 1-405; In FC-RDA a copy labelled with ATTO 565 (565–THD1) was the reporter; also called 565–THD1; source: E. coli (DE3) Rosetta 2, purified (IMAC, SEC); not shown: His10, N-terminal, cleaved; SUMO, N-terminal, cleaved

[4] = biological target: T4, talin-2 head domain (THD2) (UniProt Q71LX4 1-408); assay: as above; details: both partners purified
T4 construct: talin-2 (TLN2) head domain, residues 1-408; source: E. coli (DE3) Rosetta 2, purified (IMAC, SEC); not shown: His10, N-terminal, cleaved; SUMO, N-terminal, cleaved

[5] = biological target: T5, THD1^K402E (UniProt P26039 1-405, K402E); assay: as above; details: both partners purified
T5 construct: talin-1 (TLN1) head domain, residues 1-405, with K402E; In FC-RDA a copy labelled with ATTO 565 was the reporter; also called 565–THD1^K402E; source: E. coli (DE3) Rosetta 2, purified (IMAC, SEC); not shown: His10, N-terminal, cleaved; SUMO, N-terminal, cleaved

[6] = biological target: T6, KIND2^Y13A (UniProt Q8CIB5 1-680, Y13A); assay: as above; details: both partners purified
T6 construct: kindlin-2 (KIND2) with Y13A; In FC-RDA a copy labelled with Alexa 647 was the reporter; also called 647–KIND2^Y13A; source: E. coli Rosetta, purified (IMAC, SEC); not shown: His10, N-terminal, cleaved; SUMO, N-terminal, cleaved
T6 sequence (looked up): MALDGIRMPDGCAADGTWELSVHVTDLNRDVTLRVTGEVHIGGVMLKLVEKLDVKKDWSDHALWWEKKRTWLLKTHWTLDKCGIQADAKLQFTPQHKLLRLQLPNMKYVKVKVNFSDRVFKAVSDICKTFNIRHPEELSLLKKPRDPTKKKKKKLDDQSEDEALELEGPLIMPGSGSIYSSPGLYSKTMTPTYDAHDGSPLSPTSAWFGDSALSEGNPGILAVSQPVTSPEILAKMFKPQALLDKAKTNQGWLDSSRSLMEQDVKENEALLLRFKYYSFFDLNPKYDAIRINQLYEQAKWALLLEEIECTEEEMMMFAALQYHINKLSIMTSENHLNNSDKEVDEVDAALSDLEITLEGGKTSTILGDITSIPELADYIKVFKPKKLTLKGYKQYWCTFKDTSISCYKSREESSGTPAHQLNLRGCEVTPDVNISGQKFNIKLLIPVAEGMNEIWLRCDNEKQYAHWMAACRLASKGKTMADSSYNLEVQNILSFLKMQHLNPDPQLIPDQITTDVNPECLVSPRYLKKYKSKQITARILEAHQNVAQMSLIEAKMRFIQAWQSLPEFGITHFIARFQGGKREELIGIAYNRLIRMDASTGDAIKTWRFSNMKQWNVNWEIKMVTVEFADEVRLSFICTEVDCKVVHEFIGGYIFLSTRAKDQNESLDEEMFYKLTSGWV

[7] = biological target: T7, kindlin-2 (KIND2) (UniProt Q8CIB5 1-680); assay: as above; details: both partners purified
T7 construct: kindlin-2 (KIND2) without the deletions of ΔKIND2; In FC-RDA a copy labelled with Alexa 647 (647–KIND2) was the reporter; also called 647–KIND2; source: E. coli Rosetta, purified (IMAC, SEC); not shown: His10, N-terminal, cleaved; SUMO, N-terminal, cleaved
T7 sequence (looked up): T6 sequence (looked up) with A13Y

[8] = biological target: T8, KIND2 lacking the flexible loop in F1 and the PH domain (ΔKIND2); assay: MST
T8 chain: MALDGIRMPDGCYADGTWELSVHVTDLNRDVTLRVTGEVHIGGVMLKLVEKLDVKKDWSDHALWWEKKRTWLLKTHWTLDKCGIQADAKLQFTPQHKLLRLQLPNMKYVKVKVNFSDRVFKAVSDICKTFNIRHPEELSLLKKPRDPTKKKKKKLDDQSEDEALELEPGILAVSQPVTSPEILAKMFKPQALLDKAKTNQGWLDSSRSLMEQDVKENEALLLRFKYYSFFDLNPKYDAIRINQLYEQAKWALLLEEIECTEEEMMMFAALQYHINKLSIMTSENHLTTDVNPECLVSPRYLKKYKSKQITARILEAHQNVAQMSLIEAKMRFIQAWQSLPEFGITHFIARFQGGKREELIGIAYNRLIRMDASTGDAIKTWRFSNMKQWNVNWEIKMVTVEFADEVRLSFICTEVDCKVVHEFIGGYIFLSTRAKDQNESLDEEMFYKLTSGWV

[9] = biological target: T9, F3 domain of TLN1 (TLN1-F3) (UniProt P26039 305-405); assay: MST
T9 chain: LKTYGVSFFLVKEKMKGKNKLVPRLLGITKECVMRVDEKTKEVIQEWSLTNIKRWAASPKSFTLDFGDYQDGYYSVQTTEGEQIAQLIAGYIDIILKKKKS

[10] = biological target: T10, F3 domain of TLN2 (TLN2-F3) (UniProt Q71LX4 311-408); assay: MST
T10 chain: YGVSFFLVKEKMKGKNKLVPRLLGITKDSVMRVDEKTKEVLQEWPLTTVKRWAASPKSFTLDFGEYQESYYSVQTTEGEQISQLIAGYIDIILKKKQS

[11] = biological target: T3, talin-1 head domain (THD1); assay: flow cytometry-based reporter-displacement assay (FC-RDA) on beads; biotinylated TM–CT in nanodiscs (10% PIP2 or PIP3, 90% DMPC) on streptavidin Dynabeads; reporters 100 nM 565–THD1 or 50 nM 647–KIND2; unlabelled THD1 or KIND2 titrated; 20 mM Tris pH 7.5, 200 mM NaCl, 10 min at room temperature; the lipids add to the binding; details: both partners purified
[12] = biological target: T5, THD1^K402E; assay: as above; details: both partners purified
[13] = biological target: T6, KIND2^Y13A; assay: as above; details: both partners purified
[14] = biological target: T7, kindlin-2 (KIND2); assay: as above; details: both partners purified

T5 sequence (P26039 1-405 K402E): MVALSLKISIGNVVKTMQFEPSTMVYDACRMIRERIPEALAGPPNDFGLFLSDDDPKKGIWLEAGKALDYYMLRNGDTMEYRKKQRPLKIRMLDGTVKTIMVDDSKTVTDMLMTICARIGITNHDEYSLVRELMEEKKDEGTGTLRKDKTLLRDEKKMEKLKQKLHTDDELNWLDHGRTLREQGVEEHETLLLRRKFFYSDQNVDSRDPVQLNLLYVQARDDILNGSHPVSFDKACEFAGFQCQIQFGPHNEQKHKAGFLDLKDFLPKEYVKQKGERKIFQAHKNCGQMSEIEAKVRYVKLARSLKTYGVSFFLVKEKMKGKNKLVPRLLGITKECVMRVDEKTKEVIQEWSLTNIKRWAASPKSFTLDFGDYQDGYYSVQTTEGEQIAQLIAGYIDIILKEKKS

B1: integrin β1A cytoplasmic tail (β1-CT), recombinant (peptide, UniProt P05556-1 758-798, looked up)
chain: HDRREFAKFEKEKMNAKWDTGENPIYKSAVTTVVNPKYEGK
notes: integrin β1, splice isoform A, cytoplasmic tail, residues 758-798; DNA synthesised; 15N-, 13C,15N- or 2H,13C,15N-labelled when observed by NMR; also called β1A-CT; integrin-β1-CT; source: E. coli (DE3) Rosetta 2 in M9 medium, purified (IMAC, cation exchange); not shown: His10, N-terminal, cleaved; SUMO, N-terminal, cleaved
binding result [1]: binds | binding result [2]: binds

B2: ATTO 488-labelled β3-CT (488–β3-CT) (peptide, UniProt O54890 741-787, looked up)
peptide: {ATTO 488}-KLLITIHDRKEFAKFEEERARAKWDTANNPLYKEATSTFTNITYRGT
notes: integrin β3 cytoplasmic tail; source: synthetic peptide (MPIB Core Facility)
Kd [3]: 108 µM and 105 µM | Kd [4]: 39 µM | Kd [5]: 34 µM | Kd [6]: 9 µM | Kd [7]: 9 µM | Kd [8]: 6.8 µM | Kd [9]: 106 µM | Kd [10]: 98 µM

B3: β3 transmembrane and cytoplasmic tail polypeptide (β3-TM–CT) in nanodiscs (domain or fragment, UniProt O54890 715-787, looked up)
chain: GPDILVVLLSVMGAILLIGLATLLIWKLLITIHDRKEFAKFEEERARAKWDTANNPLYKEATSTFTNITYRGT
modifications: biotin (biotin-maleimide)
notes: integrin β3 transmembrane helix and cytoplasmic tail, residues 715-787; Embedded in nanodiscs of 10% PIP2 or PIP3 and 90% DMPC; held on streptavidin beads by the biotin; source: E. coli BL21 (DE3) Rosetta 2, inclusion bodies, purified (IMAC, cation exchange), put into MSP2N2 nanodiscs
binding result [11]: binds | binding result [12]: binds | binding result [13]: binds | binding result [14]: binds
